Assay results as given in the Human Domainome abundance scans (Beltran et al. 2025).

B1: Peripheral plasma membrane protein CASK, residues 488 to 569; numbered along this chain, O14936 (parent)
chain: VRLVQFQKNTDEPMGITLKMNELNHCIVARIMHGGMIHRQGTLHVGDEIREINGISVANQTVEQLQKMLREMRGSITFKIVP

Variants of: B1
Experiment: abundance fitness (aPCA) (normalised: wild type 0, dead -1); higher = more abundant; growth selection in yeast, the domain comes from the species named
Settings: Homo sapiens

Abundance fitness of substitutions, site by site:
I16: S -1.08 | V -0.081 | P -0.765 | K -1.14 | A -0.115 | W -0.044 | Y -0.593 | L 0.088 | N -0.654 | G -0.98 | E -0.932 | Q -0.849 | F 0.109 | C -0.143 | T -0.659 | D -0.933
T10: N -0.075 | W -0.086 | I -0.081 | E -0.07 | D -0.026 | V -0.113 | H -0.064 | G -0.01 | K -0.029 | C 0.066 | Q -0.111 | Y -0.097 | A -0.075 | L -0.05 | P -0.045 | F 0.012 | M -0.007
L23: S 0.028 | V 0.012 | Y 0.128 | I 0.054 | R 0.046 | N -0.038 | C 0.013 | A 0.039 | P -0.073 | K 0.005 | W 0.007 | F -0.04 | T 0.044 | H 0.028 | G 0.033 | Q 0.043 | E 0.086
N24: I -0.89 | H -0.006 | E -0.065 | F -0.252 | K -0.032 | C -0.159 | D -0.024 | A -0.14 | G 0.023
Q5: S 0.075 | R 0.074 | V 0.029 | K 0.128 | G 0 | H -0.049 | D -0.038 | M 0.065 | Y -0.024 | E 0.149 | F -0.041 | T 0.117 | I -0.068 | L -0.092 | W -0.106
D11: A -0.027 | G -0.034 | T 0.055 | H 0.075 | R -0.023 | P -0.069 | Q 0.021 | V -0.072 | Y -0.22 | E -0.05 | S 0.009 | I -0.142 | L -0.092 | W -0.175 | F -0.251 | K -0.054 | M -0.11 | C -0.136 | N 0.08
F6: A -0.065 | N -0.708 | R -0.673 | L 0.053 | C -0.01 | K -0.674 | P -0.924 | S -0.321 | E -0.629 | W -0.251 | I -0.028 | Y -0.095 | D -0.712 | H -0.181 | Q -0.589 | G -0.405 | M 0.052 | T -0.129 | V 0.061
Q7: L -0.027 | N 0.02 | T 0.041 | K -0.017 | D 0.079 | P -0.177 | C 0.021 | F -0.021 | S -0.042 | V 0.001 | I 0.074 | R -0.025 | H 0.009 | Y 0.021 | E 0.048 | A -0.025 | W -0.037
M14: V -0.017 | S -0.149 | I 0.055 | T -0.165 | L 0.001 | F -0.01 | W -0.042 | R -0.858 | Y -0.206 | Q -0.531 | A -0.078 | C -0.127 | K -0.784 | N -0.337
T17: C -0.045 | V 0.003 | F -0.071 | I 0.092 | K 0.015 | E -0.019 | H 0.031 | P -1.07 | Q -0.001 | G -0.023 | R -0.031 | M -0.046 | N -0.09 | S -0.051 | A -0.079 | L 0.019
K19: W -0.195 | M -0.071 | D -0.016 | Y -0.01 | Q -0.016 | G 0.025 | I -0.102 | L -0.026 | T -0.009 | V -0.008 | A 0.022 | P -0.999 | E -0.029 | N -0.037 | F -0.041 | C -0.089 | H -0.01 | R -0.017
E22: V -0.079 | W -0.138 | N -0.075 | R 0.001 | G 0.022 | M -0.078 | S -0.022 | C -0.089 | L -0.135 | P -0.03 | F -0.277 | Q 0.008 | I -0.185 | H -0.037 | D 0.031 | T -0.021 | Y 0.028 | K -0.004
P13: C 0.024 | H -0.054 | L -0.125 | V -0.046 | T -0.041 | E -0.119 | A -0.065 | D -0.028 | W -0.102 | F -0.126 | I -0.154 | G -0.024 | K 0.055 | Y -0.154 | M -0.1 | S -0.036 | N -0.021 | Q -0.183 | R -0.183
K8: N -0.098 | P -0.256 | T -0.179 | S -0.169 | W -0.136 | Y -0.093 | L -0.028 | A -0.071 | I 0.002 | V -0.007 | G -0.242 | E -0.505 | R -0.021 | Q 0.004 | M -0.087 | F -0.291 | C -0.326 | D -0.403
N21: E -0.136 | R -0.268 | S -0.045 | H -0.25 | K -0.186 | P -0.33 | G -0.186 | I -0.201 | Y -0.282 | Q -0.226 | F -0.415 | V -0.145 | M -0.258 | T -0.041 | L -0.228 | C -0.201 | W -0.6
M20: C -0.19 | P -0.325 | Q -0.059 | R -0.034 | N -0.16 | L -0.016 | H -0.038 | D -0.489 | E -0.302 | W -0.044 | G -0.453 | I -0.036 | S -0.154 | F 0.026 | A -0.128 | V -0.046 | K 0.034 | T -0.088 | Y -0.01
G15: L -0.62 | F -0.427 | C -0.556 | K -0.538 | Q -0.362 | R -0.467 | S -0.493 | V -0.682 | W -0.374 | A -0.395 | N -0.398 | P -0.266 | H -0.549 | E -0.201 | D -0.276 | Y -0.776
E12: M -0.016 | Q -0.063 | H -0.154 | P -0.757 | N -0.277 | I -0.09 | R -0.143 | D -0.101 | A -0.08 | S -0.089 | G -0.059 | F -0.231 | L -0.131 | Y -0.237 | V -0.139
L18: R -0.986 | I -0.055 | D -1.13 | N -0.918 | S -0.699 | A -0.761 | Q -0.797 | P -1.2 | H -0.877 | E -0.909 | M -0.128 | K -0.796 | V -0.088 | T -0.646 | C -0.262 | W -0.492 | F 0.04 | Y -0.277
N9: S -0.009 | T 0.024 | F -0.035 | E 0.055 | L 0.019 | A -0.003 | H -0.027 | D 0.024 | M -0.012 | Q -0.008 | V 0.005 | R -0.031 | C -0.092 | W -0.081 | I -0.015 | Y -0.088 | G -0.027
